Here are results for two molecules from patent US20220017612A1 (TILOS THERAPEUTICS, published 2022).

For experiment [1], the target named is T1, fusion protein of a human IgG1 Fc domain and cynomolgus monkey LAP-TGFβ1 (human; cynomolgus monkey).
T1 construct: also called cynomolgus monkey LAP-TGFβ-Fc
Kind of experiment: BLI, 2:1 model, component 1. As for the experimental part: (§1) The 20E6_H0.2aL1_IgG1 antibody was biotinylated using EZ-Link SulfoNHS-LC-Biotin (ThermoFisher). A streptavidin-functionalized tip was equilibrated in binding buffer (10 mM sodium phosphate, 150 mM sodium chloride, 1% (w/v) bovine serum albumin, 0.05% (w/v) sodium azide, pH 7.4) and dipped in a 10 μg/mL solution of biotinylated anti-LAP in binding buffer for 30 seconds to load the tip with antibody. The antibody-loaded tip was then washed in binding buffer and placed in a solution containing 0-24 nM of a fusion protein having a human IgG1 Fc domain fused to either human LAP-TGFβ1, human LAP-TGFβ2 or human LAP-TGFβ3. The antigen was allowed to bind to antibody for 5 minutes (association phase), and then the tip was moved to binding buffer (dissociation phase). The association and dissociation phases were fit to a 2:1 heterogenous ligand binding model to determine the binding rate constants. As shown in FIG. 21A and Table 17, 20E6_H0.2aL1_IgG1 bound with sub-nanomolar affinity to human LAP-TGFβ1, but not to human LAP-TGFβ2 (FIG. 21B) or LAP-TGFβ3 (FIG. 21C).
(§2) The binding of 20E6_H0.2aL1_IgG1 antibody and 20E6_H0.2aL1_hIgG4mut antibody to LAP-TGFβ1 of various species was examined by bio-layer interferometry using the method described in Example 12, except that the antibody-loaded tip was placed in a solution containing 0-24 nM of a fusion protein having a human IgG1 Fc domain fused to either mouse, rat, cynomolgus monkey, or human LAP-TGFβ1.

For experiment [2], the target named is T2, fusion protein of a human IgG1 Fc domain and human LAP-TGFβ1 (human, UniProt P01137 30-390).
T2 construct: printed both as Fc-huB1 and LAP-TGFβ-Fc; also called Fc-huB1; Fc-human LAP
As to the kind of experiment: BLI, 2:1 model, component 2. As for the experimental part:
as §1, §2

The target in experiment [3] is T3, fusion protein of a human IgG1 Fc domain and rat LAP-TGFβ1 (human; rat, UniProt P17246 30-390, limits assumed).
T3 construct: also called rat LAP-TGFβ-Fc
As to the kind of experiment: BLI, 2:1 model, component 2. How it is done:
as §1, §2

For experiment [4], the target named is T4, fusion protein of a human IgG1 Fc domain and mouse LAP-TGFβ1 (human; mouse, UniProt P04202 30-390).
T4 construct: also called mouse LAP-TGFβ-Fc
Kind of experiment: BLI, 2:1 model, component 2. How it is done:
as §1, §2

The target in experiment [5] is T5, fusion protein of a human IgG1 Fc domain and human LAP-TGFβ2 (human, UniProt P61812 21-414).
T5 construct: also called Fc-huB2; human LAP-TGFβ2-Fc
T5 sequence: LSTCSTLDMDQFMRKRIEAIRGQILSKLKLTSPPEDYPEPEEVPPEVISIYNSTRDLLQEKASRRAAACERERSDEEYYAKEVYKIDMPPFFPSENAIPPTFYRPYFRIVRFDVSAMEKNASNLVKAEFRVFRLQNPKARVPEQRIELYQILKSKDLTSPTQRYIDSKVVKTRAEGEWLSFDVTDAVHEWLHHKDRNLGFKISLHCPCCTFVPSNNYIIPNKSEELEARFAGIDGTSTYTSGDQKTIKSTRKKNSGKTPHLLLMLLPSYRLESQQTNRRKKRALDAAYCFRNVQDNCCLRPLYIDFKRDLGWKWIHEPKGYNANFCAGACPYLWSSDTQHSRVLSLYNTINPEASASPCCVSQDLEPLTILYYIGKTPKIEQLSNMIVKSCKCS
Kind of experiment: bio-layer interferometry, biotinylated antibody on streptavidin tip, Fc-huB2 in solution. As for the experimental part:
as §1

The target of experiment [6] is human LAP-TGFβ1 overexpressed on cells (human, UniProt P01137 30-390). As to the kind of experiment: cell-based or functional assay.
The target of experiment [7] is T6, human LAP-TGFβ2 overexpressed on HT1080 cells (human, UniProt P61812 21-414).
T6 construct: also called HT1080-huB2
T6 sequence: T5 sequence
As to the kind of experiment: flow cytometry titration, HT1080-huB2 cells. As for the experimental part: (§3) This Example describes the binding of anti-LAP antibodies to LAP-TGFβ isoforms and LAP-TGFβ variants. In addition to antibodies 28G11_hIgG1, 22F9_hIgG1, and 20E6_hIgG1, anti-LAP antibodies 17G8_hIgG1, 24E3_hIgG1, and 2C9_(hyb) were also tested in this experiment. Briefly, 4×10⁵ each of (a) HT1080 cells, (b) HT1080 cells overexpressing human LAP-TGFβ1, (c) HT1080 cells overexpressing human LAP-TGFβ2, (d) HT1080 cells overexpressing human LAP-TGFβ3, (e) HT1080 cells overexpressing murine LAP-TGFβ1, (f) P3U1 cells, (g) P3U1 cells overexpressing LAP-TGFβ1 and GARP, and (h) P3U1 cells overexpressing LAP-TGFβ1 and LRRC33 were cultured in 96-well plates. The plates were centrifuged for 5 min at 1,500 rpm, liquid was removed, and cells were resuspended with 200 μL FACS buffer. The plates were centrifuged again, diluted primary antibody was added to each well, and the plates were incubated on ice for 20 minutes, followed by centrifugation. The cells were resuspended in 200 μL FACS buffer, centrifuged again, and resuspended in 50 μL diluted secondary antibody (Alexa647-anti-Human IgG or APC-anti-Mouse IgG). The plates were incubated on ice for 20 minutes in the dark, washed twice with 200 μL FACS buffer, and cells from each well (in 200 μL FACS buffer) were read on the Attune NXT instrument.

Experiment [8] concerns the target T7, human LAP-TGFβ3 overexpressed on HT1080 cells (human, UniProt P10600 24-412).
T7 construct: also called HT1080-huB3
T7 sequence: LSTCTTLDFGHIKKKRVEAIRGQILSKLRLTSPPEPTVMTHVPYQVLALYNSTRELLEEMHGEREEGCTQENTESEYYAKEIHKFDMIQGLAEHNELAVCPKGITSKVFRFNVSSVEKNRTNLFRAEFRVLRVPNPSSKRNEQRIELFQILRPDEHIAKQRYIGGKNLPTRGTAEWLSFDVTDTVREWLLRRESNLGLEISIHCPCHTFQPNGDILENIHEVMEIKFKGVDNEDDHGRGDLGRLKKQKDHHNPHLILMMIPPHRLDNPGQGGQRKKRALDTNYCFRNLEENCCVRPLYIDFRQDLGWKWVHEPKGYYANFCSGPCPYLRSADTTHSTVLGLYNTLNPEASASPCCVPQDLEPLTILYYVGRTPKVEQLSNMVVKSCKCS
As to the kind of experiment: flow cytometry titration, HT1080-huB3 cells. As for the experimental part: as §3

T2 sequence (P01137 30-390 limits assumed): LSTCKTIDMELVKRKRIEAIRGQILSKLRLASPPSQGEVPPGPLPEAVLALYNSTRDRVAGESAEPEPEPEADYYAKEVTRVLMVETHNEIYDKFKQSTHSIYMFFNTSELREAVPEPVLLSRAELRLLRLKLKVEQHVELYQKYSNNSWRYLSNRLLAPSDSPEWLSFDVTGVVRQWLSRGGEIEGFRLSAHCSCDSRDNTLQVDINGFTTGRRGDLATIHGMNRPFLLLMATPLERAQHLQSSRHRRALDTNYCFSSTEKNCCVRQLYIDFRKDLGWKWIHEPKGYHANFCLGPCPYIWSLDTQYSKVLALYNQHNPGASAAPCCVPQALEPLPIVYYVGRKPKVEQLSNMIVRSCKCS
T3 sequence (P17246 30-390 limits assumed): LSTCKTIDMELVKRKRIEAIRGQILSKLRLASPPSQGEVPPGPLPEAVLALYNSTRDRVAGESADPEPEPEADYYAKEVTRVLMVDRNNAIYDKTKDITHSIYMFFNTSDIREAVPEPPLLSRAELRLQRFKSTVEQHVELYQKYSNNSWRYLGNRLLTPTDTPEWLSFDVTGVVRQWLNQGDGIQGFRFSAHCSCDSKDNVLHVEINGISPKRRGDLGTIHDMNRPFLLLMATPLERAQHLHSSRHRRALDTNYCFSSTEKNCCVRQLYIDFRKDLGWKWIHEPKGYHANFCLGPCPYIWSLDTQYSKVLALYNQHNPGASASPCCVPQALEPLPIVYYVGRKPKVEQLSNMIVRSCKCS
T4 sequence (P04202 30-390 limits assumed): as the sequence (P17246 30-390 limits assumed) above, with D93E, T99S, F131L, T134S, V202K counted along it
human LAP-TGFβ1 overexpressed on cells, sequence (P01137 30-390): as the sequence (P01137 30-390 limits assumed) above

B1: 20E6_H0.2aL1_hIgG1 (antibody)
heavy: not shown
light: DIQMTQSPSSLSASVGDRVTITCRASQDITNYLNWYQQKPGKAVKLLIYYTSRLHSGVPSRFSGSGSGTDYTLTISSLQPEDFATYFCQQGDTLPWTFGQGTKLEIKRTVAAPSVFIFPPSDEQLKSGTASVVCLLNNFYPREAKVQWKVDNALQSGNSQESVTEQDSKDSTYSLSSTLTLSKADYEKHKVYACEVTHQGLSSPVTKSFNRGEC
notes: also called 20E6_H0.2aL1_IgG1; humanized 20E6
Consider B1, for which the Kd in experiment [1] was found to be 15.8 nM; in experiment [2], 0.97 nM; in experiment [3], 0.68 nM; in experiment [4], 0.56 nM. For the same molecule, the koff in experiment [1] came to 0.0394 s⁻¹; in experiment [2], 0.000657 s⁻¹; in experiment [3], 0.000768 s⁻¹; in experiment [4], 0.00039 s⁻¹. The kon in experiment [1] amounted to 2.49e+06 M⁻¹ s⁻¹; in experiment [2], 680000 M⁻¹ s⁻¹; in experiment [3], 1.14e+06 M⁻¹ s⁻¹; in experiment [4], 700000 M⁻¹ s⁻¹. Also, the binding result in experiment [5] was “no binding (tested: 24 nM)”.

B2: 22F9_hIgG1 (antibody, V domains shown)
VH: QVQLQQPGAELVKPGASVKLSCKASGYTFTSYWMHWVKQRPGQGLEWIGMIHPNSGSTNYNEKFKSKATLTVDKSSSTAYMQLSSLTSEDSAVYYCAYYDYDGFFDVWGTGTTVTVSS
VL: DIVLTQSPASLDVSLGQRATISCRASKSVSTSGYSYMHWYQQKSGQPPKLLIYLASNLESGVPARFSGSGSGTHFTLNIHPVEEEDAATYYCQHSRELPYTFGGGTKLEIK
As for B2, the “Inhibition of human TGFβ1 activation (IC50)” value in experiment [6] stood at 3.9 µg/mL. In addition, the binding result in experiment [7] and in experiment [8] was “no binding (tested: about 800 ng/well)” each time.
